# From patent US20250326839A1 (VIGIL NEUROSCIENCE, published 2025)
# T1: human TREM2 (human, UniProt Q9NZC2 19-174, limits assumed)
# T1 construct: also called triggering receptor expressed on myeloid cells 2
# T1 sequence: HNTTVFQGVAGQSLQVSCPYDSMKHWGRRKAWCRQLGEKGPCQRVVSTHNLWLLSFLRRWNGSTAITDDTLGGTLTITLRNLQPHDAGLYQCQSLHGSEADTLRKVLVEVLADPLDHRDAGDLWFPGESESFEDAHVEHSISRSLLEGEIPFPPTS
# Key:
# [1] = target: T1, human TREM2; assay: 1st screen, 110 nM Ab
# [2] = target: T1, human TREM2; assay: 2nd screen, 100 nM
Binding Signal [1],Binding Signal [2],Binder
0.2 fold over 6E7 parental antibody,0.56 fold over 6E7 parental antibody,"V6 (antibody, V domains shown, also called 6E7 variant V6) VH: EVQLVQSGAEVKKPGESLKISCKGSGYSFTSMWIAWVRQMPGKGLEWMGIIYPGDSDTRYSPSFQGQVTISADKSISTAYLQWSSLKASDTAMYFCARQRTFYYDSSDYFDYWGQGTLVTVSS VL: DIQMTQSPSSVSASVGDRVTITCRASQGISSWLAWYQQKPGKAPKLLIYAASSLQNGVPSRFSGSGSGTDFTLTISSLQPEDFATYFCQQADSFPRTFGQGTKLEIK"
0.18 fold over 6E7 parental antibody,0.52 fold over 6E7 parental antibody,"V20 (antibody, V domains shown, also called 6E7 variant V20) VH: EVQLVQSGAEVKKPGESLKISCKGSGYSFTSYWIAWVRQMPGKGLEWMGRIYPGDSDTRYSPSFQGQVTISADKSISTAYLQWSSLKASDTAMYFCARQRTFYYDSSDYFDYWGQGTLVTVSS VL: DIQMTQSPSSVSASVGDRVTITCRASQGISSWLAWYQQKPGKAPKLLIYAASSLQNGVPSRFSGSGSGTDFTLTISSLQPEDFATYFCQQADSFPRTFGQGTKLEIK"
0.17 fold over 6E7 parental antibody,0.42 fold over 6E7 parental antibody,"V18 (antibody, V domains shown, also called 6E7 variant V18) VH: EVQLVQSGAEVKKPGESLKISCKGSGYSFTSYHIAWVRQMPGKGLEWMGIIYPGDSDTRYSPSFQGQVTISADKSISTAYLQWSSLKASDTAMYFCARQRTFYYDSSDYFDYWGQGTLVTVSS VL: DIQMTQSPSSVSASVGDRVTITCRASQGISSWLAWYQQKPGKAPKLLIYAASSLQNGVPSRFSGSGSGTDFTLTISSLQPEDFATYFCQQADSFPRTFGQGTKLEIK"
0.4 fold over 6E7 parental antibody,0.4 fold over 6E7 parental antibody,"V23 (antibody, V domains shown, also called 6E7 variant V23; LV-202/HV-15) VH: EVQLVQSGAEVKKPGESLKISCKGSGYSFTSYWIAWVRQMPGKGLEWMGIIYPGDSDTRYSPSFQGQVTISADKSISTAYLQWSSLKASDTAMYFCARQRTFYYDSSDYFDYWGQGTLVTVSS VL: DIQMTQSPSSVSASVGDRVTITCRASQGISSWLAWYQQKPGKAPKLLIYAASSLQNGVPSRFSGSGSGTDFTLTISSLQPEDFATYFCQQADSFPLTFGQGTKLEIK"
0.23 fold over 6E7 parental antibody,0.34 fold over 6E7 parental antibody,"V33 (antibody, V domains shown, also called 6E7 variant V33; LV-16/HV-203) VH: EVQLVQSGAEVKKPGESLKISCKGSGYSFTSYWIAWVRQMPGKGLEWMGIIYPGDSDTRYSPSFQGQVTISADKSISTAYLQWSSLKASDTAMYFCARQRTFYGDSSDYFDYWGQGTLVTVSS VL: DIQMTQSPSSVSASVGDRVTITCRASQGISSWLAWYQQKPGKAPKLLIYAASSLQNGVPSRFSGSGSGTDFTLTISSLQPEDFATYFCQQADSFPRTFGQGTKLEIK"
0.2 fold over 6E7 parental antibody,0.33 fold over 6E7 parental antibody,"V43 (antibody, V domains shown, also called 6E7 variant V43) VH: EVQLVQSGAEVKKPGESLKISCKGSGYSFTSYWIAWVRQMPGKGLEWMGIIYPGDSGTRYSPSFQGQVTISADKSISTAYLQWSSLKASDTAMYFCARQRTFYYDSSDYFDYWGQGTLVTVSS VL: DIQMTQSPSSVSASVGDRVTITCRASQGISSWLAWYQQKPGKAPKLLIYAASSLQNGVPSRFSGSGSGTDFTLTISSLQPEDFATYFCQQADSFPRTFGQGTKLEIK"
0.76 fold over 6E7 parental antibody,0.68 fold over 6E7 parental antibody,"V21 (antibody, V domains shown, also called 6E7 variant V21) VH: EVQLVQSGAEVKKPGESLKISCKGSGYSFTSYWIAWVRQMPGKGLEWMGIIYPGDSDTRYSPSFQGQVTISADKSISTAYLQWSSLKASDTAMYFCARQRTFYYDSSDFFDYWGQGTLVTVSS VL: DIQMTQSPSSVSASVGDRVTITCRASQGISSWLAWYQQKPGKAPKLLIYAASSLQNGVPSRFSGSGSGTDFTLTISSLQPEDFATYFCQQADSFPRTFGQGTKLEIK"
0.59 fold over 6E7 parental antibody,0.48 fold over 6E7 parental antibody,"V19 (antibody, V domains shown, also called 6E7 variant V19) VH: EVQLVQSGAEVKKPGESLKISCKGSGYSFTSSWIAWVRQMPGKGLEWMGIIYPGDSDTRYSPSFQGQVTISADKSISTAYLQWSSLKASDTAMYFCARQRTFYYDSSDYFDYWGQGTLVTVSS VL: DIQMTQSPSSVSASVGDRVTITCRASQGISSWLAWYQQKPGKAPKLLIYAASSLQNGVPSRFSGSGSGTDFTLTISSLQPEDFATYFCQQADSFPRTFGQGTKLEIK"
0.76 fold over 6E7 parental antibody,0.7 fold over 6E7 parental antibody,"V10 (antibody, V domains shown, also called 6E7 variant V10; LV-201/HV-15) VH: EVQLVQSGAEVKKPGESLKISCKGSGYSFTSYWIAWVRQMPGKGLEWMGIIYPGDSDTRYSPSFQGQVTISADKSISTAYLQWSSLKASDTAMYFCARQRTFYYDSSDYFDYWGQGTLVTVSS VL: DIQMTQSPSSVSASVGDRVTITCRASQGISSWLAWYQQKPGKAPKLLIYSASSLQNGVPSRFSGSGSGTDFTLTISSLQPEDFATYFCQQADSFPRTFGQGTKLEIK"
0.45 fold over 6E7 parental antibody,0.41 fold over 6E7 parental antibody,"V42 (antibody, V domains shown, also called 6E7 variant V42) VH: EVQLVQSGAEVKKPGESLKISCKGSGYSFTSAWIAWVRQMPGKGLEWMGIIYPGDSDTRYSPSFQGQVTISADKSISTAYLQWSSLKASDTAMYFCARQRTFYYDSSDYFDYWGQGTLVTVSS VL: DIQMTQSPSSVSASVGDRVTITCRASQGISSWLAWYQQKPGKAPKLLIYAASSLQNGVPSRFSGSGSGTDFTLTISSLQPEDFATYFCQQADSFPRTFGQGTKLEIK"
0.61 fold over 6E7 parental antibody,0.73 fold over 6E7 parental antibody,"V31 (antibody, V domains shown, also called 6E7 variant V31) VH: EVQLVQSGAEVKKPGESLKISCKGSGYSFTSYWIAWVRQMPGKGLEWMGIIYPGDSETRYSPSFQGQVTISADKSISTAYLQWSSLKASDTAMYFCARQRTFYYDSSDYFDYWGQGTLVTVSS VL: DIQMTQSPSSVSASVGDRVTITCRASQGISSWLAWYQQKPGKAPKLLIYAASSLQNGVPSRFSGSGSGTDFTLTISSLQPEDFATYFCQQADSFPRTFGQGTKLEIK"
0.34 fold over 6E7 parental antibody,1.02 fold over 6E7 parental antibody,"V34 (antibody, V domains shown, also called 6E7 variant V34) VH: EVQLVQSGAEVKKPGESLKISCKGSGYSFTSYWIAWVRQMPGKGLEWMGIIYPGDSDTRYSPSFQGQVTISADKSISTAYLQWSSLKASDTAMYFCARQRTFYYDSSDYFDYWGQGTLVTVSS VL: DIQMTQSPSSVSASVGDRVTITCRASQGISSWLAWYQQKPGKAPKLLIYAASSLQDGVPSRFSGSGSGTDFTLTISSLQPEDFATYFCQQADSFPRTFGQGTKLEIK"
0.67 fold over 6E7 parental antibody,0.54 fold over 6E7 parental antibody,"V9 (antibody, V domains shown, also called 6E7 variant V9; LV-16/HV-201) VH: EVQLVQSGAEVKKPGESLKISCKGSGYSFTSYWIAWVRQMPGKGLEWMGIIYPGDSDTRYSPSFQGQVTISADKSISTAYLQWSSLKASDTAMYFCARQRGFYYDSSDYFDYWGQGTLVTVSS VL: DIQMTQSPSSVSASVGDRVTITCRASQGISSWLAWYQQKPGKAPKLLIYAASSLQNGVPSRFSGSGSGTDFTLTISSLQPEDFATYFCQQADSFPRTFGQGTKLEIK"
0.11 fold over 6E7 parental antibody,0.32 fold over 6E7 parental antibody,"V7 (antibody, V domains shown, also called 6E7 variant V7) VH: EVQLVQSGAEVKKPGESLKISCKGSGYSFTSEWIAWVRQMPGKGLEWMGIIYPGDSDTRYSPSFQGQVTISADKSISTAYLQWSSLKASDTAMYFCARQRTFYYDSSDYFDYWGQGTLVTVSS VL: DIQMTQSPSSVSASVGDRVTITCRASQGISSWLAWYQQKPGKAPKLLIYAASSLQNGVPSRFSGSGSGTDFTLTISSLQPEDFATYFCQQADSFPRTFGQGTKLEIK"
0.21 fold over 6E7 parental antibody,0.29 fold over 6E7 parental antibody,"V35 (antibody, V domains shown, also called 6E7 variant V35) VH: EVQLVQSGAEVKKPGESLKISCKGSGYSFTSYWIAWVRQMPGKGLEWMGIIYPGDSDTRYSPSFQGQVTISADKSISTAYLQWSSLKASDTAMYFCARQRTFYYDSSDYFDYWGQGTLVTVSS VL: DIQMTQSPSSVSASVGDRVTITCRASQGISSWLAWYQQKPGKAPKLLIYAASSLQNGVPSRFSGSGSGTDFTLTISSLQPEDFATYFCQQAYSFPRTFGQGTKLEIK"
0.79 fold over 6E7 parental antibody,0.72 fold over 6E7 parental antibody,"V30 (antibody, V domains shown, also called 6E7 variant V30; LV-16/HV-202) VH: EVQLVQSGAEVKKPGESLKISCKGSGSSFTSYWIAWVRQMPGKGLEWMGIIYPGDSDTRYSPSFQGQVTISADKSISTAYLQWSSLKASDTAMYFCARQRTFYYDSSDYFDYWGQGTLVTVSS VL: DIQMTQSPSSVSASVGDRVTITCRASQGISSWLAWYQQKPGKAPKLLIYAASSLQNGVPSRFSGSGSGTDFTLTISSLQPEDFATYFCQQADSFPRTFGQGTKLEIK"
0.82 fold over 6E7 parental antibody,0.89 fold over 6E7 parental antibody,"V32 (antibody, V domains shown, also called 6E7 variant V32) VH: EVQLVQSGAEVKKPGESLKISCKGSGYSFTSYWIAWVRQMPGKGLEWMGIIYPGDSDTRYSNSFQGQVTISADKSISTAYLQWSSLKASDTAMYFCARQRTFYYDSSDYFDYWGQGTLVTVSS VL: DIQMTQSPSSVSASVGDRVTITCRASQGISSWLAWYQQKPGKAPKLLIYAASSLQNGVPSRFSGSGSGTDFTLTISSLQPEDFATYFCQQADSFPRTFGQGTKLEIK"
0.3 fold over 6E7 parental antibody,0.71 fold over 6E7 parental antibody,"V22 (antibody, V domains shown, also called 6E7 variant V22) VH: EVQLVQSGAEVKKPGESLKISCKGSGYSFTSYWIAWVRQMPGKGLEWMGIIYPGDSDTRYSPSFQGQVTISADKSISTAYLQWSSLKASDTAMYFCARQRTFYYDSSDYFDYWGQGTLVTVSS VL: DIQMTQSPSSVSASVGDRVTITCRASQGISSWLAWYQQKPGKAPKLLIYRASSLQNGVPSRFSGSGSGTDFTLTISSLQPEDFATYFCQQADSFPRTFGQGTKLEIK"
0.79 fold over 6E7 parental antibody,0.42 fold over 6E7 parental antibody,"V11 (antibody, V domains shown, also called 6E7 variant V11) VH: EVQLVQSGAEVKKPGESLKISCKGSGYSFTSYWIAWVRQMPGKGLEWMGIIYPGDSDTRYSPSFQGQVTISADKSISTAYLQWSSLKASDTAMYFCARQRTFYYDSSDYFDYWGQGTLVTVSS VL: DIQMTQSPSSVSASVGDRVTITCRASQGISSWLAWYQQKPGKAPKLLIYAASSLQNGVPSRFSGSGSGTDFTLTISSLQPEDFATYFCQQAASFPRTFGQGTKLEIK"
0.28 fold over 6E7 parental antibody,0.77 fold over 6E7 parental antibody,"V8 (antibody, V domains shown, also called 6E7 variant V8) VH: EVQLVQSGAEVKKPGESLKISCKGSGYSFTSYWIAWVRQMPGKGLEWMGIIYPGDSDTKYSPSFQGQVTISADKSISTAYLQWSSLKASDTAMYFCARQRTFYYDSSDYFDYWGQGTLVTVSS VL: DIQMTQSPSSVSASVGDRVTITCRASQGISSWLAWYQQKPGKAPKLLIYAASSLQNGVPSRFSGSGSGTDFTLTISSLQPEDFATYFCQQADSFPRTFGQGTKLEIK"
